Laboratory results published in patent US20240376189A1 (University of Pennsylvania, published 2024).

Experiments:
cynomolgus antigen [1] = molecular target: T1, cynomolgus antigen (cynomolgus); assay: affinity-ranking ELISA: cynomolgus antigen coated on the plate, normalized scFv periplasmic extract in 3-fold dilutions from 100 nM, anti-c-myc-HRP, OD450
T1 construct: also called cyno antigen; cynomolgus monkey C5a
Method: The affinity ranking ELISA was carried out as following: scFv concentrations in PEs were measured by Quantification ELISA using purified scFv sample as a standard. Briefly, anti-His-antibody (Genscript-A00186) were coated on the plates in coating buffer PBS at pH7.4 overnight at 4° C. The next day, plates were blocked with casein in PBS at pH7.4 for 1 hour at 25° C. ScFv containing PEs were diluted 3 fold serial dilutions and then added to the plates. A purified scFv standard sample with known concentration was used as a standard. After incubation at 25° C. for 1 hour and washing 3 times with PBS-T, anti-c-myc-HRP (Bethyl-A190-104P) was added to the wells followed by incubation for 1 hour at 25° C. HRP activity was detected with TMB substrate and the reaction was quenched with 2M HCl. Plates were read at 450 nm.
The next day, plates were blocked with casein in PBS for 1 hour at 25° C. Normalized scFv containing PEs were diluted using 3 fold serial dilutions starting at 100 nM, added to the plates and incubated at 25° C. for 1 hour. After washing, anti-c-myc-HRP was added to the wells followed by incubation for 1 hour at 25° C. HRP activity was detected with TMB substrate and the reaction was quenched with 2M HCl. Plates were read at 450 nm. Data were fitted into one-site binding equation using GraphPad Prism 5 software.

cynomolgus antigen [2] = molecular target: T1, cynomolgus antigen; assay: SPR, scFv captured via anti-c-myc/anti-His, 60 nM cynomolgus antigen as analyte, 1:1 fit
Method: The activator was prepared by mixing 400 mM EDC (1-ethyl-3-(3-dimethylaminopropyl) carbodiimide) and 100 mM NHS (N-hydroxysuccinimide) (GE) immediately prior to injection. The CMS sensor chip was activated for 600 s with the mixture at a flow rate of 10 μL/min. Mixture of anti-c-myc and anti his antibodies in 10 mM NaAc (pH 4.5) was then injected to Fc1 and Fc2 of channel 1 to channel 8 for 600 seconds at a flow rate of 10 μL/min. The chip was deactivated by 1 M ethanolamine-HCl (GE) at a flow rate of 10 μL/min for 420 seconds.
The anti-C5a scFv was diluted to 0.5 μg/ml, the other samples were diluted to 2 μg/ml in running buffer 1×HBS-EP+ (0.01 M HEPES, 0.15 M NaCl, 0.003 M EDTA, 0.05% surfactant P20). […] Diluted TES buffer was injected into channel Fc1 at a flow rate of 10 μL/min for 40 s, diluted scFv was injected into channel Fc2 at a flow rate of 10 μL/min for 40 s. […] 10 mM glycine pH 1.5 as regeneration buffer was injected following every dissociation phase. The chip was regenerated with 10 mM glycine pH 1.5.
The sensorgrams for reference channel Fc1 and buffer channel were subtracted from the test sensorgrams. Data were fitted by 1:1 kinetic binding model. Molecular weight of 8.4 kDa was used to calculate the molar concentration of the cyno antigen.

human C5a = molecular target: T2, human C5a (human, UniProt P01031 678-751, biotinylated in the U937/C5aR ligand blocking assay (site not stated)); assay: SPR, scFv captured via anti-c-myc/anti-His, 5 nM human antigen as analyte, 1:1 fit
T2 construct: also called human antigen; huC5a
T2 sequence: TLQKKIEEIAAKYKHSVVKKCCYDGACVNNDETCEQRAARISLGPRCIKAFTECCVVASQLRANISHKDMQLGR

Binder | EC50 (read off the curve) (cynomolgus antigen [1]) [nM] | koff (cynomolgus antigen [2]) [s⁻¹] | koff (human C5a) [s⁻¹]
13B7 (scFv, V domains shown, Combination mutant scFv) VH: QVQLVQSGAEVKKPGSSVKVSCKASGYTFTDHIIHWMRQAPGQGLEWMGYIYPREGWTNYNENFKGRVTITADKSTSTAYMELSSLRSEDTAVYYCARERNLEYFDYWGQGTTVTVSS VL: DIVLTQSPASLAVSPGQRATITCKASQSVDYEGFNYMNWYQQKPGQPPKLLIYAASNLDSGVPARFSGSGSGTDFTLTINPVEAEDTANYYCQQSVEDPHTFGGGTKVEIK | ~6 | 0.000252 | < 1e-05
2H8E10 (scFv, V domains shown, Combination mutant scFv) VH: QVQLVQSGAEVKKPGSSVKVSCKASGYTFTDHIIHWMRQAPGQGLEWMGYIYPREGWTNYNENFKGRVTITADKSTSTAYMELSSLRSEDTAVYYCARERNLEYFDYWGQGTTVTVSS VL: DIVLTQSPASLAVSPGQRATITCKASQSVDYEGDNYMNWYQQKPGQPPKLLIYAASNLDSGVPARFSGSGSGTDFTLTINPVEAEDTANYYCQQSNEDPHTFGGGTKVEIK | – | 0.00258 | 1.82e-05
5G11 (scFv, V domains shown, Combination mutant scFv) VH: QVQLVQSGAEVKKPGSSVKVSCKASGYTFTDHIIHWMRQAPGQGLEWMGYIYPREGWTNYNENFKGRVTITADKSTSTAYMELSSLRSEDTAVYYCARERNLEYFDYWGQGTTVTVSS VL: DIVLTQSPASLAVSPGQRATITCKASQSVDYEGFNYMNWYQQKPGQPPKLLIYAASNLDSGVPARFSGSGSGTDFTLTINPVEAEDTANYYCQQSLEDPHTFGGGTKVEIK | – | 0.000279 | < 1e-05
8C1 (scFv, V domains shown, Combination mutant scFv) VH: QVQLVQSGAEVKKPGSSVKVSCKASGYTFTDHIIHWMRQAPGQGLEWMGYIYPREGWTNYNENFKGRVTITADKSTSTAYMELSSLRSEDTAVYYCARERNLEYFDYWGQGTTVTVSS VL: DIVLTQSPASLAVSPGQRATITCKASQSVDFEGFNYMNWYQQKPGQPPKLLIYAASNLDSGVPARFSGSGSGTDFTLTINPVEAEDTANYYCQQSLEDPHTFGGGTKVEIK | – | 0.000481 | < 1e-05
8H8 (scFv, V domains shown, Combination mutant scFv) VH: QVQLVQSGAEVKKPGSSVKVSCKASGYTFTDHIIHWMRQAPGQGLEWMGYIYPREGWTNYNENFKGRVTITADKSTSTAYMELSSLRSEDTAVYYCARERNLEYFDYWGQGTTVTVSS VL: DIVLTQSPASLAVSPGQRATITCKASQSVDYEGFNYMNWYQQKPGQPPKLLIYATSNLDSGVPARFSGSGSGTDFTLTINPVEAEDTANYYCQQSLEDPHTFGGGTKVEIK | – | 0.000927 | 2.69e-05
10F5 (scFv, V domains shown, Combination mutant scFv) VH: QVQLVQSGAEVKKPGSSVKVSCKASGYTFTDHIIHWMRQAPGQGLEWMGYIYPREGWTNYNENFKGRVTITADKSTSTAYMELSSLRSEDTAVYYCARERNLEYFDYWGQGTTVTVSS VL: DIVLTQSPASLAVSPGQRATITCKASQSVDYEGDNYMNWYQQKPGQPPKLLIYATSNLDSGVPARFSGSGSGTDFTLTINPVEAEDTANYYCQQSLEDPHTFGGGTKVEIK | – | 0.00202 | < 1e-05
11A11 (scFv, V domains shown, Combination mutant scFv) VH: QVQLVQSGAEVKKPGSSVKVSCKASGYTFTDHIIHWMRQAPGQGLEWMGYIYPREGWTNYNENFKGRVTITADKSTSTAYMELSSLRSEDTAVYYCARERNLEYFDYWGQGTTVTVSS VL: DIVLTQSPASLAVSPGQRATITCKASQSVDFEGFNYMNWYQQKPGQPPKLLIYATSNLDSGVPARFSGSGSGTDFTLTINPVEAEDTANYYCQQSVEDPHTFGGGTKVEIK | – | 0.000786 | < 1e-05
13B9 (scFv, V domains shown, Combination mutant scFv) VH: QVQLVQSGAEVKKPGSSVKVSCKASGYTFTDHIIHWMRQAPGQGLEWMGYIYPREGWTNYNENFKGRVTITADKSTSTAYMELSSLRSEDTAVYYCARERNLEYFDYWGQGTTVTVSS VL: DIVLTQSPASLAVSPGQRATITCKASQSVDFEGFNYMNWYQQKPGQPPKLLIYAASNLDSGVPARFSGSGSGTDFTLTINPVEAEDTANYYCQQSNEDPHTFGGGTKVEIK | ~10 | 0.000327 | 2.2e-05
16C2 (scFv, V domains shown, Combination mutant scFv) VH: QVQLVQSGAEVKKPGSSVKVSCKASGYTFTDHIIHWMRQAPGQGLEWMGYIYPREGWTNYNENFKGRVTITADKSTSTAYMELSSLRSEDTAVYYCARERNLEYFDYWGQGTTVTVSS VL: DIVLTQSPASLAVSPGQRATITCKASQSVDYEGFNYMNWYQQKPGQPPKLLIYATSNLDSGVPARFSGSGSGTDFTLTINPVEAEDTANYYCQQSVEDPHTFGGGTKVEIK | – | 0.00176 | 2.58e-05
16D10 scFv (scFv, V domains shown) VH: QVQLVQSGAEVKKPGSSVKVSCKASGYTFTDHIIHWMRQAPGQGLEWMGYIYPREGWTNYNENFKGRVTITADKSTSTAYMELSSLRSEDTAVYYCARERNLEYFDYWGQGTTVTVSS VL: DIVLTQSPASLAVSPGQRATITCKASQSVDYEGFNYMNWYQQKPGQPPKLLIYAASNLDSGVPARFSGSGSGTDFTLTINPVEAEDTANYYCQQSNEDPYTFGGGTKVEIK | ~20 | 0.000465 | 2.34e-05
16F10 (scFv, V domains shown, Combination mutant scFv) VH: QVQLVQSGAEVKKPGSSVKVSCKASGYTFTDHIIHWMRQAPGQGLEWMGYIYPREGWTNYNENFKGRVTITADKSTSTAYMELSSLRSEDTAVYYCARERNLEYFDYWGQGTTVTVSS VL: DIVLTQSPASLAVSPGQRATITCKASQSVDFEGFNYMNWYQQKPGQPPKLLIYAASNLDSGVPARFSGSGSGTDFTLTINPVEAEDTANYYCQQSVEDPHTFGGGTKVEIK | ~4 | 0.000155 | 1.14e-05
17D2 (scFv, V domains shown, Combination mutant scFv) VH: QVQLVQSGAEVKKPGSSVKVSCKASGYTFTDHIIHWMRQAPGQGLEWMGYIYPREGWTNYNENFKGRVTITADKSTSTAYMELSSLRSEDTAVYYCARERNLEYFDYWGQGTTVTVSS VL: DIVLTQSPASLAVSPGQRATITCKASQSVDFEGDNYMNWYQQKPGQPPKLLIYATSNLDSGVPARFSGSGSGTDFTLTINPVEAEDTANYYCQQSVEDPHTFGGGTKVEIK | – | 0.0019 | 1.89e-05
18D3 (scFv, V domains shown, Combination mutant scFv) VH: QVQLVQSGAEVKKPGSSVKVSCKASGYTFTDHIIHWMRQAPGQGLEWMGYIYPREGWTNYNENFKGRVTITADKSTSTAYMELSSLRSEDTAVYYCARERNLEYFDYWGQGTTVTVSS VL: DIVLTQSPASLAVSPGQRATITCKASQSVDYEGDNYMNWYQQKPGQPPKLLIYATSNLDSGVPARFSGSGSGTDFTLTINPVEAEDTANYYCQQSVEDPHTFGGGTKVEIK | – | 0.00418 | 2.98e-05
18F5 (scFv, V domains shown, Combination mutant scFv) VH: QVQLVQSGAEVKKPGSSVKVSCKASGYTFTDHIIHWMRQAPGQGLEWMGYIYPREGFTNYNENFKGRVTITADKSTSTAYMELSSLRSEDTAVYYCARERNLEYFDYWGQGTTVTVSS VL: DIVLTQSPASLAVSPGQRATITCKASQSVDFEGFNYMNWYQQKPGQPPKLLIYAASNLDSGVPARFSGSGSGTDFTLTINPVEAEDTANYYCQQSVEDPHTFGGGTKVEIK | ~8 | 0.000319 | 3.03e-05
19D2 (scFv, V domains shown, Combination mutant scFv) VH: QVQLVQSGAEVKKPGSSVKVSCKASGYTFTDHIIHWMRQAPGQGLEWMGYIYPREGWTNYNENFKGRVTITADKSTSTAYMELSSLRSEDTAVYYCARERNLEYFDYWGQGTTVTVSS VL: DIVLTQSPASLAVSPGQRATITCKASQSVDFEGDNYMNWYQQKPGQPPKLLIYATSNLDSGVPARFSGSGSGTDFTLTINPVEAEDTANYYCQQSLEDPHTFGGGTKVEIK | – | 0.00102 | < 1e-05
